Assay results reported in PMC6602975.

Assays:
[1] = molecular target: H4K16ac nucleosome (X. laevis | not stated); assay: native gel or EMSA; increasing amounts of Orc1 or Sir3 proteins with 50 or 25 nM nucleosomes; 10 mM Tris pH 7.5, 50 mM NaCl, 2.5% glycerol, 1 mM DTT; room temperature, 30 min; native PAGE 6% (Sir3) or 8% (Orc1), 0.2X TBE; decrease of free nucleosome; apparent KD from a Hill fit
[2] = molecular target: Unmodified nucleosome core particle (X. laevis histone octamer on 147 bp Widom-601 DNA) (X. laevis); assay: as above

Chain of Wild-type Orc1 (1–214) BAH domain (P54784 1-214): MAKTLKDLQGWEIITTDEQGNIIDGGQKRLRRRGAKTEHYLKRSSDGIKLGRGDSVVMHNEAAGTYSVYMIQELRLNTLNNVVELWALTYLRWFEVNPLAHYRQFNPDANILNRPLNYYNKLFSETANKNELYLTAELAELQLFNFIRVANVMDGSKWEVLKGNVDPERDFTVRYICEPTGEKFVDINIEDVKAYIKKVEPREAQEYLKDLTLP

Question: What does the source list for “Wild-type Orc1 (1–214) BAH domain (from UniProt P54784 1-214) (domain or fragment)”?
Answer: Kd [1]: 1500 nM; Kd [2]: 1300 nM
